Test results published in patent US12297265B2, “Antibody and use thereof” (SICHUAN KELUN-BIOTECH BIOPHARMACEUTICAL CO., LTD., priority 2018, dated 2025).
Where a chain is given by its changes, count along the chain named. Each block holds one molecule with its values, some of them ahead of it.

What was measured:
Format in all cases: binding
human Claudin18.2 [1] = molecular target: T1, human Claudin18.2 (Homo sapiens, UniProt P56856); assay: FACS affinity of mouse anti-human Claudin18.2 antibodies to Ba/F3-Claudin 18.2 cells; set-up: expressed in transfected cells; host or cells: Ba/F3 (BaF/3, DSMZ ACC300), hygromycin-selected monoclonal line
Experimental: The affinity of the candidates to Claudin18.2 was measured using FACS. Single hybridoma clone 1E9.2, 2C6.9, 6B9.22, 9C8.1, 16A9.11, 19G10.14 and 19H11.6 were cultured in serum-free medium and mouse antibodies were purified from 100 mL supernatant by protein A chromatography (MabSelect SuRe, GE). Ba/F3-Claudin18.1 and Ba/F3-Claudin18.2 cells were incubated with the purified mouse antibodies at various concentrations on ice for 30 min and mouse IgG was used as negative control (Thermo Fisher, Cat: 31903), followed by washing with FACS buffer (PBS+2% FBS) twice. The cells were then incubated with a fluorescent goat-anti-mouse secondary antibody (Jackson ImmunoResearch, Cat: 115-605-071) on ice for 30 min before FACS analysis.

human Claudin18.2 [2] = molecular target: T1, human Claudin18.2; assay: Affinity of chimeric and humanized antibodies to Ba/F3-Claudin 18.2 cells (IntelliCyt); set-up: expressed in transfected cells; host or cells: Ba/F3 (BaF/3, DSMZ ACC300), hygromycin-selected monoclonal line
Description: In order to evaluate the anti-Claudin18.2 humanized antibodies, codon optimized cDNAs of the heavy chains and the light chains of the candidate humanized antibodies from Example 6 were synthesized and ligated into pcDNA3.4 (by Nanjing Genscript Biotech Corporation). Expi293F cells (purchased from Thermo Incorporation) were co-transfected with pcDNA3.4 coding the heavy chain and light chain of each antibody. The antibodies were purified from the supernatant using protein A (MabSelect SuRe, GE). The affinity of the humanized antibodies to Claudin18.2 was determined using Ba/F3-Claudin18.2 cells which over-expressed human Claudin18.2. Ba/F3-Claudin18.2 cells (60000 in 10 ul buffer) were incubated with purified humanized antibodies on ice for 30 min, followed by washing with buffer (PBS+2% FBS) twice and addition of Alexa647-labeled goat-anti-human IgG Fc antibody (1:500 dilution). The cells were incubated on ice for another 30 min and analyzed by IntelliCyt.

human Claudin18.2 [3] = molecular target: T1, human Claudin18.2; assay: Cellular ELISA on L929-Claudin 18.2 cells; set-up: expressed in transfected cells; host or cells: L929, infected with pLVX-IRES-puro lentivirus, puromycin-selected monoclonal line; cells were formaldehyde-fixed for the cellular ELISA; settings: Table 10 experiment
Experimental: Human Claudin18.2 is a four transmembrane protein and has a complex structure. Cellular ELISA was thus carried out to maintain the structure of Claudin18.2. The stable cell line L929-Claudin 18.2 constructed in Example 1 were used for detection. Specifically, L929-Claudin 18.2 adherent cells were detached by 2 mM EDTA treatment. The cells were resuspended and adjusted to 2×10^5/mL and 100 μL of the resuspension was plated into 96 well plate and incubated overnight at 37° C. The next day, the media was removed, and the plate was washed with PBS once. 100 μL/well 4% formaldehyde was added to the plate. After 30 min of incubation at room temperature, formaldehyde was removed, followed by washing twice with PBS. Blocking buffer (PBS containing 2% BSA) was then added to the plate at 100 μL/well, and incubated at 37° C. for 2 h. After removal of blocking buffer, 100 μL/well of serially diluted antibodies (starting from 1 μM, with 4-fold dilution, for a total of 11 concentrations) were added to the corresponding wells, which were incubated at 37° C. for 2h afterwards. The plate was washed with 250 μL PBST for 5 times, and was allowed to stand for 2 min each time. 100 μL/well of horseradish peroxidase labeled anti-Human IgG secondary antibody (HRP-anti-Human IgG, Jackson ImmunoResearch, 109-035-003) diluted 1:10000 in PBS (containing 2% BSA) was added to the plate. The plate was incubated at 37° C. for 1 h and washed with 250 μL PB ST 6 times, wherein the plate was allowed to stand for 2 min each time. 100 μL/well of TMB solution (Thermo, 34029) was added. The reactions were incubated at 37° C. for 20 min and stopped with 50 μL 2 mol/L H2504. The absorbance at 450 nm was read on a plate reader (MD, SpectraMax M2) and the results were subjected to curve fitting by Graphpad Prism.

Max MFI (Max Mean Fluorescence Intensity) (human Claudin18.2 [1]): 5.815 ×10^6
B1: 16A9.11: mouse anti-human Claudin18.2 monoclonal antibody; VH SEQ ID NO: 46, VL SEQ ID NO: 47 (antibody, V domains shown)
VH: EVMLVESGGGLVKPGGSLKLSCAASGFSFSNSAMSWVRQTPEKRLEGVATISSGDSYTYYPDSVKGRFTISRDTAKNSLYLQMSSLRSEDTAVYYCTRQGYGNAMDYWGQGTSVTVSS
VL: DIVMTQSPSSLTVTAGEKVTMSCKSSQSLLNSGNQKNYLTWYQQKPGQPPKLLIYWSSTRESGVPDRFTGSGSGTDFTLTISSVQAEDLAVYYCQNDYYYPLTFGAGTKLELK
modifications: heavy chain variable region sequence of mouse antibody 16A9.11; light chain variable region sequence of mouse antibody 16A9.11

Max MFI (Max Mean Fluorescence Intensity) (human Claudin18.2 [1]): 4.969 ×10^6
B2: 9C8.1: mouse anti-human Claudin18.2 monoclonal antibody; VH SEQ ID NO: 48, VL SEQ ID NO: 49 (antibody, V domains shown)
VH: QVQLQQSGAELVRPGSSVKISCKASGYAFSNYWMNWVKQRPGQGLEWIGQIYPGDGDTNYNGKFKGKATLTTDKSSSTAYMQLSSLTSEDSAVYFCARLYYGNSFAYWGQGTLVTVSS
VL: B1 VL with M21V, S57A, E87A, V91I, Y99F, L102F, A106G, L112I
modifications: heavy chain variable region sequence of mouse antibody 9C8.1; light chain variable region sequence of mouse antibody 9C8.1

Max MFI (human Claudin18.2 [2]): 11.28 ×10^6
B3: 1E9.2-hz41: humanized antibody of 1E9.2; VH SEQ ID NO: 32, VL SEQ ID NO: 33 (antibody, V domains shown)
VH: EVQLVESGGGLVKPGGSLRLSCAASGFSFSNSAMSWVRQAPGKGLEGVATISSGDSYTYYPDSVKGRFTISRDNAKNSLYLQMNSLRAEDTAVYYCARQGYGNALDYWGQGTLVTVSS
VL: DIVMTQSPDSLAVSLGERATINCKSSQSLLNSGNQKNYLTWYQQKPGQPPKLLIYWSSTRESGVPDRFSGSGSGTDFTLTISSLQAEDFAVYYCQNDYYYPLTFGGGTKVEIK
modifications: heavy chain variable region of humanized antibody 1E9.2hz41; light chain variable region of humanized antibody 1E9.2hz11/1E9.2hz21/1E9.2hz31/1E9.2hz41

Max Signal Value (OD450) (human Claudin18.2 [3]): 0.8 OD450
B4: 2C6.9-hz11: humanized antibody of 2C6.9; VH SEQ ID NO: 39, VL SEQ ID NO: 41 (antibody, V domains shown)
VH: QVQLQESGPGLVKPSETLSLTCTVSGFSLTRYGVSWIRQPPGKGLEWIGVIWGDGNTNYNPSLKSRVTISKDSSKSQVSLKLSSVTAADTAVYYCARVNFGNALDYWGQGTLVTVSS
VL: B3 VL with S57A, E61D, F89V, Y98F, Y99I, Y100F
modifications: Heavy chain variable region of humanized antibody 2C6.9hz11; light chain variable region of humanized antibody 2C6.9hz11/2C6.9hz21

Max MFI (human Claudin18.2 [2]): 14.56 ×10^6
B5: 1E9.2-hz21: humanized antibody of 1E9.2; VH SEQ ID NO: 30, VL SEQ ID NO: 33 (antibody, V domains shown)
VH: B3 VH with A49S, P61A
VL: B3 VL
modifications: heavy chain variable region of humanized antibody 1E9.2hz21; light chain variable region of humanized antibody 1E9.2hz11/1E9.2hz21/1E9.2hz31/1E9.2hz41

Max MFI (human Claudin18.2 [2]): 10.64 ×10^6
B6: 1E9.2-hz31: humanized antibody of 1E9.2; VH SEQ ID NO: 31, VL SEQ ID NO: 33 (antibody, V domains shown)
VH: B3 VH with P61A
VL: B3 VL
modifications: heavy chain variable region of humanized antibody 1E9.2hz31; light chain variable region of humanized antibody 1E9.2hz11/1E9.2hz21/1E9.2hz31/1E9.2hz41
